Measurements as given in PMC11045720, “Denaturing mass photometry for rapid optimization of chemical protein-protein cross-linking reactions” (Nature Communications, 2024).

Biological target: the molecule itself
Experiment: cross-linking; formaldehyde 0.05% to 1% (vol/vol) on 1 mg/mL protein, 20 min at room temperature; read by denaturing mass photometry

B1: L-Glutamate dehydrogenase from bovine liver (enzyme)
chain: not shown
notes: L-Glutamate dehydrogenase from bovine liver (Sigma); also called GLDH; source: bought: Sigma (from bovine liver)
- stoichiometry N: 6
